Article PMC3601782

Target: Sox2 (UniProt P48431)
Assay: co-IP Flag-Oct4 variants, endogenous Sox2
Details: reference: Flag-Oct4 wild type; sites T235

## Oct4 (from UniProt Q01860) Flag-Oct4-T235A
  binding against the reference: weaker
